Experiment [1] deals with T1, WT β-catenin_(41–49) peptide on HLA-A3 of T2A3 cells (Homo sapiens, HLA-A*03:01, UniProt P04439;P61769).
T1 construct: HLA-A3 stably transfected in T2A3 cells; human β2-microglobulin (ProSpec) added at pulsing; β-catenin amino acids 41-49; also called WT peptide-pulsed T2A3 cells; copies: + +
Nature of the experiment: flow cytometry on cells; T2A3 cells pulsed with peptide and β2-microglobulin, stained with ~1 × 10^10 phage for 1 h on ice; anti-M13 and PE anti-rabbit. The settings on record: partners not purified.

The target of experiment [2] is T1, WT β-catenin_(41–49) peptide on HLA-A3 …. Nature of the experiment: flow cytometry on cells; T2A3 cells pulsed with peptide and β2-microglobulin, stained with 1 μg scFv in 100 μl for 1 h on ice; PE anti-DYKDDDDK
The note with it: one partner purified. (In general: A flow cytometer gives signals particle by particle.)

B1: clone 7 phage clone (scFv displayed on M13 phage) (scFv, V domains shown)
VH: EVQLVESGGGLVQPGGSLRLSCAASGFNVWSYGIHWVRQAPGKGLEWVAGVTPDGSYTYYADSVKGRFTISADTSKNTAYLQMNSLRAEDTAVYYCSRSYGWAMDYWGQGTLVTVSS
VL: DIQMTQSPSSLSASVGDRVTITCRASQDVNTAVAWYQQKPGKAPKLLIYSASFLYSGVPSRFSGSRSGTDFTLTISSLQPEDFATYYCQQQYAYTPITFGQGTKVEIK
notes: scFv from the second library on the humanized 4D5 framework (CDRs L2, L3, H1, H2, H3 varied); also called cl; source: phage display, amplified in SS320 E. coli with M13K07 helper phage
Regarding B1, in experiment [1], the binding result is reported as “no binding”.

B2: clone 7 scFv with C-terminal FLAG tag (scFv, V domains shown)
VH: EVQLVESGGGLVQPGGSLRLSCAASGFNVWSYGIHWVRQAPGKGLEWVAGVTPDGSYTYYADSVKGRFTISADTSKNTAYLQMNSLRAEDTAVYYCSRSYGWAMDYWGQGTLVTVSS
VL: DIQMTQSPSSLSASVGDRVTITCRASQDVNTAVAWYQQKPGKAPKLLIYSASFLYSGVPSRFSGSRSGTDFTLTISSLQPEDFATYYCQQQYAYTPITFGQGTKVEIK
notes: as the scFv of m22; also called cl; source: E. coli, produced by AxioMx
B2: in experiment [2], the binding result is “no binding”.

B3: E10 phage clone (scFv displayed on M13 phage) (scFv, V domains shown)
VH: EVQLVESGGGLVQPGGSLRLSCAASGFNINNTYIHWVRQAPGKGLEWVASIYPTDGYTRYADSVKGRFTISADTSKNTAYLQMNSLRAEDTAVYYCSRTYYSYYSAMDVWGQGTLVTVSS
VL: DIQMTQSPSSLSASVGDRVTITCRASQDVNTAVAWYQQKPGKAPKLLIYSASFLYSGVPSRFSGSRSGTDFTLTISSLQPEDFATYYCQQSYYSPPTFGQGTKVEIK
notes: scFv from the first library on the humanized 4D5 framework (CDRs L3, H1, H2, H3 varied); source: phage display, amplified in SS320 E. coli with M13K07 helper phage
Take B3: the binding result in experiment [1] is listed as “no binding”.

B4: E10 scFv with C-terminal FLAG tag (scFv, V domains shown)
VH: EVQLVESGGGLVQPGGSLRLSCAASGFNINNTYIHWVRQAPGKGLEWVASIYPTDGYTRYADSVKGRFTISADTSKNTAYLQMNSLRAEDTAVYYCSRTYYSYYSAMDVWGQGTLVTVSS
VL: DIQMTQSPSSLSASVGDRVTITCRASQDVNTAVAWYQQKPGKAPKLLIYSASFLYSGVPSRFSGSRSGTDFTLTISSLQPEDFATYYCQQSYYSPPTFGQGTKVEIK
notes: as the scFv of m19; source: E. coli, produced by AxioMx
As for B4, the binding result in experiment [2] is listed as “no binding”.

For the origin of these results see article PMC6916501 (The Journal of Biological Chemistry, 2019).
